Data on four variants can be found in IntAct's records for PubMed 16830178.

B1: ADP-ribosylation factor 3 (Arabidopsis thaliana (Mouse-ear cress)), P40940 (parent)
chain: MGILFTRMFSSVFGNKEARILVLGLDNAGKTTILYRLQMGEVVSTIPTIGFNVETVQYNNIKFQVWDLGGQTSIRPYWRCYFPNTQAVIYVVDSSDTDRIGVAKEEFHAILEEDELKGAVVLIFANKQDLPGALDDAAVTEALELHKIKSRQWAIFKTCAVKGEGLFEGLDWLSNTLKSGSG
partner: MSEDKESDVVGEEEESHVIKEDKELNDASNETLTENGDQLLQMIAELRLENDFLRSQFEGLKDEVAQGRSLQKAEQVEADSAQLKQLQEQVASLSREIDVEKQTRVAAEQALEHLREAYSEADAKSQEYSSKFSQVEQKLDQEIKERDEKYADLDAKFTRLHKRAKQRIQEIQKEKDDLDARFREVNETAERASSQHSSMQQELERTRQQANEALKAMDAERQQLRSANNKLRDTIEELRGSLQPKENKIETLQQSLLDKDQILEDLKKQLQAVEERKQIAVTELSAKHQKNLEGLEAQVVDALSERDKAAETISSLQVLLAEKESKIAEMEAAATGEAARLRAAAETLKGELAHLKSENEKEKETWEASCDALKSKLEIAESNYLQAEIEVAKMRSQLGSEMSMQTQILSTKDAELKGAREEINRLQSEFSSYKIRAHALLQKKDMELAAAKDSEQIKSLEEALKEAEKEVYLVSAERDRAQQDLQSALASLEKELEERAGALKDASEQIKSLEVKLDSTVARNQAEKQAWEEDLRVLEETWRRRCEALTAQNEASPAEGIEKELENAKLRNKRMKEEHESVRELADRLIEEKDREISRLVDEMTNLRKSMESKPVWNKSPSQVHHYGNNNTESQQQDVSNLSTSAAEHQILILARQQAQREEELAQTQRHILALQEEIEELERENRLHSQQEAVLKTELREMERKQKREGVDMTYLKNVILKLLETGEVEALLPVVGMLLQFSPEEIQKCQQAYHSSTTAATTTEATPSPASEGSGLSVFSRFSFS
B2: Protein GRIP (Arabidopsis thaliana (Mouse-ear cress)), Q8S2T0 (parent)
chain: B1 partner
partner: B1 chain

One test covers variants of B1. The conditions noted are these: with grip_arath GRIP, Q8S2T0.
With F51G, the “effect of a mutation on the interaction” value is reported as “decreasing interaction”.
The same measure, in the same setting: the value for Y81G was “decreasing interaction”.

In the next test the parent is B1. The conditions noted are these: with grip_arath GRIP.
Take F51G: the “effect of a mutation on the interaction” value is reported as “disrupting interaction”.
Take Y81G: the “effect of a mutation on the interaction” value is listed as “disrupting interaction”.

Another test covers variants of B2. The conditions noted are these: with arf3_arath ARF3, P40940.
Y717A: the “effect of a mutation on the interaction” value is on record as “decreasing interaction”.
Same read-out and setting: under K719A stands “decreasing interaction”.
